From patent US20210032351A1 (XDCEXPLORER SHANGHAI, published 2021)
Each block holds one binder with its values, some of them ahead of it. Ends that are not written are not given here. * marks the point of attachment. Biotin = O=C1N[C@H]2[C@H](CS[C@H]2CCCCC(=O)*)N1

Columns and labels:
[1] = target: T1, human EGFRvIII-hFc protein (human, UniProt P00533 25-645); experiment: ELISA, coated EGFRvIII-hFc, antibody 0.1 nM
T1 construct: extracellular domain; made in HEK293 cells, purified on protein A; also called immunogen A; hFc-tagged EGFRvIII protein; not shown: human IgG Fc fragment (hFc) of the pCpC vector
Method in brief: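 Binding of purified EGFRvIII antibody was measured on plates coated overnight at 4° C with 1.0 μg/mL EGFRvIII-hFc. After BSA blocking, antibody and then an HRP-conjugated secondary were each incubated 2 h at 37° C, and signal was taken as A450 nm.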

[2] = target: T2, pep30 (cysteine pairing not given here); experiment: polypeptide dot matrix ELISA
T2 peptide: DGVRKCKKCEGPCRKVK(Biotin)

[3] = target: T3, pep13 (cysteine pairing not given here); experiment: polypeptide dot matrix ELISA
T3 peptide: HGSCVRACGADSYEMEK(Biotin)

[4] = target: T4, pep11 (cysteine pairing not given here); experiment: polypeptide dot matrix ELISA
T4 peptide: TDHGSCVRACGADSYEK(Biotin)

[5] = target: T5, pep03; experiment: polypeptide dot matrix ELISA
T5 peptide: EKKGNYVVTDHGSCVRK(Biotin)

[6] = target: T6, pep26 (cysteine pairing not given here); experiment: polypeptide dot matrix ELISA
T6 peptide: EMEEDGVRKCKKCEGPK(Biotin)

[7] = target: T7, pep01; experiment: polypeptide dot matrix ELISA
T7 peptide: LEEKKGNYVVTDHGSCK(Biotin)

[8] = target: T8, pep05 (cysteine pairing not given here); experiment: polypeptide dot matrix ELISA
T8 peptide: KGNYVVTDHGSCVRACK(Biotin)

[9] = target: T9, human EGFRvIII protein on the cell surface (human, UniProt P00533 25-1210); experiment: FACS on CHOk1-EGFRvIII cells
T9 construct: whole, on cells; the cell line is named under assay; also called hEGFRvIII; U87MG-hEGFRvIII
Method: (§1) The desired cells are subjected to an expanded culture to 90% confluence in a T-75 cell culture flask; the medium is sucked out, and the cells are washed twice with a HBSS buffer (Hanks Balanced Salt Solution) (purchased from Invitrogen), and then treated with an enzyme-free cell dissociation solution (Versene solution: purchased from Life Technology) and collected. The cells are washed twice with the HBSS buffer and are counted, and then the cells are diluted with the HBSS buffer to 2×10⁶ cells/ml, added with 1% goat serum blocking solution, with the percentage being the mass percentage, and incubated on ice for 30 minutes, and then centrifugally washed twice with the HBSS buffer. The collected cells are suspended to 2×10⁶ cells/mL with an FACS buffer (HBSS+1% BSA, with the percentage being the mass percentage), added to a 96-well FACS reaction plate at 100 μL/well, then added with 100 μL/well of the purified EGFRvIII antibody (samples to be tested) obtained in example 2, and incubated on ice for 2 hours. The plate is centrifugally washed twice with the FACS buffer, added with 100 μL/well of a fluorescence (Alexa 488) labeled secondary antibody (purchased from Invitrogen), and then incubated on ice for 1 hour. The plate is centrifugally washed 3 times with the FACS buffer, added with 100 μL/well of a fixing solution [4% (v/v) paraformaldehyde] for suspending the cells, and centrifugally washed twice with the FACS buffer after 10 minutes. The cells are suspended in 100 μL of the FACS buffer, and the results are detected and analyzed by FACS (FACS Calibur, purchased from BD). Data analysis is performed by using the software (CellQuest) to obtain the mean fluorescence intensity (MFI) of the cells. Data is further analyzed by using the software (GraphPad Prism5) to perform data fitting and calculate EC50. […] A431 cells (human epidermal cell cancer cell lines) have a large amount of wild-type EGFR protein expressed on the surface thereof.

[10] = target: T10, human wild-type EGFR protein on the cell surface (human, UniProt P00533 25-1210); experiment: FACS on A431 cells; A431 cells (large amount of wild-type EGFR on the surface)
T10 construct: whole, on cells; Endogenous on A431, HEB, U87MG cells and normal human primary hepatocytes; transfected on CHOk1-EGFR cells; The cell is named under assay; also called A431; HEB
Method: as §1, with “The” for “The desired cells are subjected to an expanded culture to 90% confluence in a T-75 cell culture flask; the medium is sucked out, and the cells are washed twice with a HBSS buffer (Hanks Balanced Salt Solution) (purchased from Invitrogen), and then treated with an enzyme-free cell dissociation solution (Versene solution: purchased from Life Technology) and collected. The”, “thereof. […] U87MG cells (human glioma cell lines) have a small amount of wild-type EGFR protein expressed on the surface thereof, while HEB cells (human glioma cell lines) have a high level of wild-type EGFR protein expression on the surface thereof.” for “thereof.”

OD450 nm [1]: 0.07 | binding result [2]: no binding | binding result [3]: no binding | binding result [4]: no binding | binding result [5]: no binding | binding result [6]: no binding | binding result [7]: no binding | binding result [8]: no binding
B1: Murine anti-75G7 (antibody, V domains shown)
VH: EVQLQQSGPELVKPGASVKIPCKASGYTFTDYNMDWVKQSHGKSLEWIGDINPNNGDTIYNQKFKGKATLTVDKSSSTAYMELRSLTSEDTAVYYCARGDYDGYYPVYYAMDYWGQGTSVTVSS
VL: ENVLTQSPAIMSASPGEKVTMTCRASSSVSSSYLHWYQQKSGASPKLWIFSTSNLAAGVPARFSGSGSGTSYSLTVSSVEAEDAATYYCQQYSGYPLTFGAGTKLELK
notes: murine hybridoma antibody; also called 75G7C6

EC50 [9]: 10.5 nM | Maximum mean fluorescence intensity [9]: 112000 MFI | EC50 [10]: 13.4 nM
B2: Chimeric antibody 75G7 (antibody, human IgG1, V domains shown)
VH: B1 VH
VL: B1 VL
notes: also called c75G7C6; chimeric antibody c75G7C6
